This note sets out measurements from US20260049134A1 (UNIVERSITY OF FLORIDA RESEARCH FOUNDATION, published 2026).

Positions count from the first letter of the chain named. Numbers in names are those of the source.

T1: GARS, endogenous in H929 multiple myeloma cells (human, UniProt P41250 37-739, limits assumed)
T1 construct: Native protein pulled down from H929 lysates; also called Glycyl-tRNA synthetase; GlyRS
T1 sequence: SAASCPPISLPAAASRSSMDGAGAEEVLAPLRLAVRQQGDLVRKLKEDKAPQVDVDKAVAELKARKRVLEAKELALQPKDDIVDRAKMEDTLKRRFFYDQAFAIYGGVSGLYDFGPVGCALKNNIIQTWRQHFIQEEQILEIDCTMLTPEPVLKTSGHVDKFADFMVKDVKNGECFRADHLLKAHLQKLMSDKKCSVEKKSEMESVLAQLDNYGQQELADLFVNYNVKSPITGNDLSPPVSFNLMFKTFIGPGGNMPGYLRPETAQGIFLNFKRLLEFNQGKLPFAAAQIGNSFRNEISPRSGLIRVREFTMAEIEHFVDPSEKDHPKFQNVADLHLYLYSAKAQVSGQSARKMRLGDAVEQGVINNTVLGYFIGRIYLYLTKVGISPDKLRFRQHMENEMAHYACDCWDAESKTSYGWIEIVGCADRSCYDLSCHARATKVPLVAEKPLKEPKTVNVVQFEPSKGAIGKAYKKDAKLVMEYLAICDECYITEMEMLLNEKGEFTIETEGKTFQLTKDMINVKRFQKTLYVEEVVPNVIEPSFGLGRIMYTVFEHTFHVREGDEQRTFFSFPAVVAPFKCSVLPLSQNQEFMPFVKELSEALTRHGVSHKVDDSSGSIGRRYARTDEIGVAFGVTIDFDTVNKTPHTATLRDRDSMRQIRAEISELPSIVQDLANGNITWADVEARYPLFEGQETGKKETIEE

T2: SELL (L-Selectin)
T2 construct: coated protein in the ELISA; also called SELL-Fc-His (R&D Systems)
T2 chain: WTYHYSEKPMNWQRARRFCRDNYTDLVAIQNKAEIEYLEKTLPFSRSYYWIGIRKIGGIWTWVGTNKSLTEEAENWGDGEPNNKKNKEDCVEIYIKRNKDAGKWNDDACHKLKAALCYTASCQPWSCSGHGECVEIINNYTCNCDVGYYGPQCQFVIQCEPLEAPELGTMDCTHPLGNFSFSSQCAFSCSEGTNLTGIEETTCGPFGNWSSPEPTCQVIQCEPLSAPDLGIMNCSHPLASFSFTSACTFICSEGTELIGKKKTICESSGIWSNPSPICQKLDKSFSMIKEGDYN

T3: CADM1-His (Acro Biosystems) (human, UniProt Q9BY67 45-374)
T3 construct: Bought; also called CADM1/IGSF4A; not shown: His tag of the bought protein
T3 sequence: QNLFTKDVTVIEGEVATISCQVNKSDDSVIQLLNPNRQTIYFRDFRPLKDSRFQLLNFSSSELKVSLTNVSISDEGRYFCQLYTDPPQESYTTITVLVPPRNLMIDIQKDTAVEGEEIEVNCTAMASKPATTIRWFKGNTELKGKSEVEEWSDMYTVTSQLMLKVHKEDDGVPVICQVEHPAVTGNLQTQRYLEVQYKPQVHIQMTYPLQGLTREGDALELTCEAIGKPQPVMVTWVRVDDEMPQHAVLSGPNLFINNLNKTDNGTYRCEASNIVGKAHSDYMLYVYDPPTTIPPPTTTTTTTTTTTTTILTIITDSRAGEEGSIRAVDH

T4: SLAMF7
T4 construct: coated protein in the ELISA; also called SLAMF7-StrepTag
T4 chain: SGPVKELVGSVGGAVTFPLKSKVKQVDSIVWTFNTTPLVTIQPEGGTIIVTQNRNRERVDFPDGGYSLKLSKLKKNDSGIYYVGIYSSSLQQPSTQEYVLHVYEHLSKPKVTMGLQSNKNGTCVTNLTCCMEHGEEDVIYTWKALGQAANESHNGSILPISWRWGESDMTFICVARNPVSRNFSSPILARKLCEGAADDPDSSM

B1: HW-16 chimeric rabbit-human IgG1 LA/LA/PG (antibody, V domains shown)
VH: QSLEESGGRLVTPGTPLTLTCTASGFSLSSYAMSWVRQAPGKGLEWIGTMPTGGGTYYASWAKGRFTISKTSTTVDLQITSPTTEDTATYFCAKHWNIWGPGTLVTISS
VL: DIVLTQTPSSTSTAVGDTVTINCRASQSIGRNLAWFQQKPGQPPKLLIYRASNLASGVPSRFKGSGSRTQFTLTISGVQREDAATYYCLGSYSSSDTAFGGGTELEILR
notes: Fc-silenced (L234A/L235A/P329G) IgG1, kappa; Alexa Fluor 647-labeled in single-step flow cytometry; Cluster C-45
B2: HW-56 chimeric rabbit-human IgG1 LA/LA/PG (antibody, V domains shown)
VH: QSVKESEGGLFKPTDTLTLTCTASGFTVSTNAVTWVRQAPGNGLEYIGTIGRSGSAYFASWAKRRSTLTRDINLNTVTLKMTSLTAADTATYFCVRGSPGYRTAISIWGPGTLVTISS
VL: AVMTQTPSSTSAAVEGTVTINCQASQSISNRLSWFQQKPGQPPKLLIYQASTLASGVPSRFKGSGSGTEFTLTISGVQREDAATYYCLGSYSSSDASFGGGTKLEIKR
notes: as for B1
B3: HW-28 chimeric rabbit-human IgG1 LA/LA/PG (antibody, V domains shown)
VH: QKQLVESGGRLVTPGTPLTLTCTASGFSLSSNAMSWVRQAPGEGLQWIGTISSGGSTYYASWAKGRFTISKTSTTVTLKMTSLTTEDTATYFCARGADLHRLWGPGTLVTVSS
VL: SFVLTQPASVQVNLGQTVSLTCTGKPLSRSFASWYQQKPGQAPVLVIYRDTSRPSGVPDRFSGSSSGNTATLTISGAQAGDEADYYCATSDGSGSSYQYVFGGGTQLTVTG
notes: Fc-silenced (L234A/L235A/P329G) IgG1, lambda; Alexa Fluor 647-labeled in single-step flow cytometry; Cluster C-45
B4: HW-81 chimeric rabbit-human IgG1 LA/LA/PG (antibody, V domains shown)
VH: QKQLVESGGGLVTPGGTLTLTCTVSGFSLSSNGVSWVRQAPGKGLEYIGLIRSIGSTYYATWAKGRFTISKTSTTVDLKITSPTTEDTATYFCARGGYRNGFKLWGPGTLVTVSS
VL: QPVLTQSPSVSAALGASAKLTCTLSSAHKTYYIEWYQQQHPGKAPRYLMQLQSDGSYTKGTGVPDRFSGSSSGADRYLIISSVQAEDEADYICGVIDSAVYVFGGGTQLTVTG
notes: as for B3
B5: HW-8 chimeric rabbit-human IgG1 LA/LA/PG (antibody, V domains shown)
VH: QSLEESGGRLVTPGTPLTLTCTVSGFSLSSYAMSWVRQAPGKGLEWIGAISTGGSTTYASWAKGRFTISKTSSTTVDLKMTSLTTEDTATYFCVRHFRLWGPGTLVTISS
VL: QVLTQTPSSVSAAVGGTVTIKCQASQSIGSALAWFQQKPGQRPKLLIYRASNLASGVPSRFKGSGSGTEFALTISGVQREDAATYYCLGGAAAVWAFGAGTNVEIKR
notes: as for B1
B6: HW-45 chimeric rabbit-human IgG1 LA/LA/PG (antibody, V domains shown)
VH: QKQLVESGGRLVTPGTPLTLTCTVSGFSLSSYAMGWFRQAPGKGLEWIGIINSYGSTYYASWAKGRFTISKTSTTVDLKITSPTTEDTATYFCGRRIGSARFDPWGPGTLVTVSS
VL: B3 VL with G24A, K25D, P26T, F31Y, V46L, S52R, Q98R, Y99L
notes: Fc-silenced (L234A/L235A/P329G) IgG1, lambda; Alexa Fluor 647-labeled in single-step flow cytometry; Prototype of cluster C-45

The target in the first experiment is T5, ICAM1-Fc (R&D Systems) (human, UniProt P05362 28-480).
T5 construct: Bought; also called ICAM-1/CD54; not shown: Fc of the bought fusion protein
T5 sequence (P05362 28-480): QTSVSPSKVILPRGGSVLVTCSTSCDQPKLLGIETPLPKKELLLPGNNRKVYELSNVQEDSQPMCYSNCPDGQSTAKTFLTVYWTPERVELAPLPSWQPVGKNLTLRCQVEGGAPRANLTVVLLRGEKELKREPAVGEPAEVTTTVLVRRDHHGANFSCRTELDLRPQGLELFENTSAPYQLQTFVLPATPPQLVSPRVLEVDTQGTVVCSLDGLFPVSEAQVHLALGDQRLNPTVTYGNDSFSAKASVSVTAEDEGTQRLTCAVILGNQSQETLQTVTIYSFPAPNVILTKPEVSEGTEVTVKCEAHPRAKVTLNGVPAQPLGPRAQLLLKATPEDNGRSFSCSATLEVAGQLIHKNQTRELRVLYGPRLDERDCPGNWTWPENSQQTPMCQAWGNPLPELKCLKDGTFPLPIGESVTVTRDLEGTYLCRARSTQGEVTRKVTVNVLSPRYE
Kind of experiment: ELISA on coated ICAM1-Fc. How it is done:
(§1) Recombinant purified ECDs (50-150 ng) of each putative target protein were coated, incubated with 150 ng of the indicated primary antibody, and binding was detected using a peroxidase-conjugated anti-human Fab secondary antibody. Heatmap represents averages of technical triplicates. (8B) Target validation via siRNA knockdown. H929 cells were transfected with siRNA pools targeting the putative antibody targets ICAM1, CADM1, and PTPRG. Cells were then subjected to cognate IgG binding analysis via flow cytometry. (NT, non-targeting siRNA).
(§2) ELISA ELISA was conducted as described previously. Briefly, 50-150 ng of antigen was coated overnight in half-area 96-well plates at 4° C., blocked with 3% BSA at 37° C. for 1 h, and 150 ng of chimeric rabbit/human IgG1 was added, incubating for 2 h at 37° C. […] After incubating at 37° C. for 15 min-1 h (depending on intensity of controls), data were acquired using a SpectraMax M5 plate reader (Molecular Devices).
For orientation: In an ELISA, binding on a coated surface is turned into a signal by an enzyme label.
As for B1, the binding result is on record as “no binding (tested: 150 ng IgG1 per well)”.

Consider B2, for which the binding result is “no binding (tested: 150 ng IgG1 per well)”.

In the case of B3, the binding result was “no binding (tested: 150 ng IgG1 per well)”.

With B4, the binding result is “no binding (tested: 150 ng IgG1 per well)”.

For another experiment, the target named is T1, GARS, endogenous in H929 multiple …. Nature of the experiment: flow cytometry, H929 + vehicle; None 2.74; surface target GARS putative. In general terms: In flow cytometry, cells or beads pass a laser one at a time.
On to B1, for which the “Cells stained (%)” value is 99.1%.

For the molecule B5, the “Cells stained (%)” value stood at 84.7%.

B2: the “Cells stained (%)” value is 99.5%.

Take B3: the “Cells stained (%)” value was determined as 98.6%.

As for B6, the “Cells stained (%)” value was 96.8%.

For the molecule B4, the “Cells stained (%)” value was found to be 99.7%.

A further experiment deals with T2, SELL (L-Selectin). Kind of experiment: ELISA on coated SELL-Fc-His. How it is done:
as §1, §2
In the case of B5, the binding result is “no binding (tested: 150 ng IgG1 per well)”.

With B4, the binding result is on record as “no binding (tested: 150 ng IgG1 per well)”.

The target in the next experiment is T1, GARS, endogenous in H929 multiple …. Kind of experiment: flow cytometry, H929 + CDH18 siRNA; None 0.19; surface target GARS putative.
As for B1, the “Cells stained (%)” value amounted to 98.6%.

Regarding B5, the “Cells stained (%)” value is 99.4%.

On to B2, for which the “Cells stained (%)” value came out at 99.9%.

Turning to B3, the “Cells stained (%)” value is 99.4%.

For B6, the “Cells stained (%)” value was 99.4%.

Take B4: the “Cells stained (%)” value is 99.3%.

The next experiment concerns the target T3, CADM1-His (Acro Biosystems). Nature of the experiment: ELISA on coated CADM1-His. How it is done: as §1, §2
For the molecule B1, the binding result is given as “no binding (tested: 150 ng IgG1 per well)”.

On to B2, for which the binding result is “no binding (tested: 150 ng IgG1 per well)”.

As to B4, the binding result is recorded as “no binding (tested: 150 ng IgG1 per well)”.

A further experiment has as its target T1, GARS, endogenous in H929 multiple …. Kind of experiment: flow cytometry, H929 + CDH18 siRNA; None 443; surface target GARS putative.
On to B1, for which the “mAb binding (MFI)” value is 174000.

Take B5: the “mAb binding (MFI)” value came to 75300.

For the molecule B2, the “mAb binding (MFI)” value was 400000.

Take B3: the “mAb binding (MFI)” value was determined as 164000.

Consider B6, for which the “mAb binding (MFI)” value was 59600.

Regarding B4, the “mAb binding (MFI)” value worked out at 193000.

The next experiment shares this target. Kind of experiment: flow cytometry, H929 + CADM1 siRNA; None 449; surface target GARS putative.
Take B1: the “mAb binding (MFI)” value came out at 45900.

Consider B5, for which the “mAb binding (MFI)” value is 17000.

With B2, the “mAb binding (MFI)” value came out at 547000.

For B3, the “mAb binding (MFI)” value was 66800.

Take B6: the “mAb binding (MFI)” value was determined as 33400.

In the case of B4, the “mAb binding (MFI)” value came to 696000.

The target of the next experiment is T4, SLAMF7. Nature of the experiment: ELISA on coated SLAMF7-StrepTag. How it is done: as §1, §2
With B5, the binding result is on record as “no binding (tested: 150 ng IgG1 per well)”.

In the case of B4, the binding result is on record as “no binding (tested: 150 ng IgG1 per well)”.
